Patent US7998940B2, “Aptamers to von Willebrand factor and their use as thrombotic disease therapeutics” (Archemix Corp., priority 2004, dated 2011)
Where two headings read alike, the source gives them in different places. Oligonucleotides are written 5' to 3', each unit as a sugar letter and its base; * is a phosphorothioate linkage, no mark a phosphodiester; rarer units and linkages stand in square brackets, end groups in braces. Plain capitals give the bases only. r = 2'-OH (RNA); f = 2'-fluoro

Legend:
[1] = target: T1, human vWF A1 domain (SEQ ID NO 5) (Homo sapiens, UniProt P04275, T1381A); assay: dot blot KD determination, human vWF A1 domain; conditions: for Human vWF A1 domain KD: DNA 1 minimers, 10 nM protein
[2] = tested on: rabbit vWF A1 domain (SEQ ID NO 6); assay: 3-point dot blot screen, rabbit vWF A1 domain; assay type: binding; conditions: for Screen- Rabbit/No Protein: 100 nM rabbit vWF A1 domain, ratio of fraction bound with target to without; for Screen Rabbit/No Protein: 3-point dot blot screen, 20 nM rabbit vWF A1 domain, ratio of fraction of aptamer bound with target protein to fraction bound without protein
Method in brief: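 Rabbit vWF A1 domain binding was screened by dot blot using three conditions: no target protein, human vWF, and rabbit vWF A1 domain at 100 nM (20 nM in the screen run twice). Radiolabeled aptamer bound to nitrocellulose was quantified, and results are expressed as the ratio of bound fraction with protein to bound fraction without protein.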

[3] = target: T1, human vWF A1 domain (SEQ ID NO 5); assay: 3-point dot blot screen, human vWF A1 domain; assay type: binding; conditions: 100 nM human vWF A1 domain
Method in brief: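 Values are ratios of aptamer fraction retained on nitrocellulose with 100 nM vWF A1 domain (human or rabbit) versus a no-protein control. Unique clones from rounds 9 and 12 pools were transcribed, desalted and 5'-32P labeled before this three-point dot blot screen.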

[4] = tested on: full length human vWF binding to lyophilized platelets; assay: Full length human von Willebrand Factor platelet binding assay (FACS); assay type: cell-based; conditions: 5 nM full length human vWF, lyophilized platelets, botrocetin; both bounds in nM
Procedure: The amount of vWF bound to fixed platelets can be measured with an antibody to vWF. The fluorescence signal from bound antibody incubated with a fluorescein conjugated secondary antibody is then detected and quantified by flow cytometry. The ability of an aptamer of the invention to block vWF binding to platelets is correlated with a reduction in fluorescence signal.
Aptamer potency to block human vWF binding to lyophilized platelets was assessed by flow cytometric analysis. Titrations of aptamers (0 nM, 0.1 nM to 1000 nM) were pre-incubated briefly with 5 nM of full length human vWF in FACS buffer (PBS plus 0.5% bovine serum albumin) at room temperature in a volume of 50 uL. Another 50 uL containing 5 uL of lyophilized platelets plus 1 uL of 0.1 U/uL of botrocetin in FACS buffer was added to aptamer/vWF. This reaction was allowed to proceed for 15 minutes at 37 degrees C. after which 200 uL of FACS buffer was added. Platelets were collected by a 6 minute spin at 1470 RCF and the supernatant was discarded. The pellets were resuspended in 100 uL of FACS buffer containing a 1:100 dilution of anti-vWF antibody and were incubated at room temperature for 30 minutes. After dilution with 200 uL of FACS buffer, the platelets were spun at 1470 RCF for 6 minutes and the supernatant was discarded. The pellets were resuspended in a 1:100 solution of anti-IgG2a-FITC antibody and were incubated in the dark for 30 minutes at room temperature. The entire 100 uL was diluted into 200 uL of FACS buffer and analyzed immediately by flow cytometric analysis in the FACSCAN. Artifactual data from contaminating debris was eliminated from the analysis by drawing a gate around the population of single and aggregated platelets. Mean fluorescent intensity (“MFI”) readings were quantified for each sample analyzed by flow cytometry. Background MFI was subtracted from all data points. Percent inhibition was reported by calculating the percent value of binding of full length human vWF to platelets in the presence of aptamer at a given concentration relative to binding in the absence of any aptamer (see FIG. 7). IC50 values were determined by fitting the percent inhibition of vWF binding to platelets as a function of aptamer concentration to the equation: % inhibition=% inhibitionmax/(1+IC50/aptamer conc.)

full length human vWF = assay: 3-point dot blot screen, full length human vWF; assay type: binding; conditions: 20 nM full length human vWF, ratio of fraction of aptamer bound with target protein to fraction bound without protein
Source text: When a significant positive ratio of binding of DNA in the presence of human or rabbit vWF A1 domain versus in the absence of protein was seen, the pools were cloned using the TOPO TA cloning kit (Invitrogen Cat. #45-0641, Carlsbad, Calif.) according to the manufacturer's instructions. Round 7 and 11 pool templates were cloned and sequenced (218 total sequences), producing 146 unique clones within 12 sequence families of which sequences from six families show vWF target binding activity. All unique clones were assayed twice in a 3-point dot blot screen (no protein target control, 20 nM full length human vWF (Calbiochem Cat. #681300, La Jolla, Calif.), or 20 nM rabbit vWF A1 domain. The data is presented in the third and fourth columns of Table 17 below as the ratio of the fraction of the aptamer bound to the nitrocellulose in the presence of the target protein to the fraction of aptamer bound in the absence of the target protein.

[5] = read-out: human A1 KD, rRfY aptamers, 8 point titration of human vWF A1 domain
[6] = rRfY aptamers, ratio of fraction bound with target to fraction bound without target
[7] = read-out: Human A1 KD, DNA SELEX 1 aptamers, competition dot blot, 100 nM protein, cold competitor titration
[8] = DNA SELEX 1 aptamers, ratio of fraction bound with target to without

rabbit vWF A1 domain (SEQ ID NO 6), sequence (as listed by the source): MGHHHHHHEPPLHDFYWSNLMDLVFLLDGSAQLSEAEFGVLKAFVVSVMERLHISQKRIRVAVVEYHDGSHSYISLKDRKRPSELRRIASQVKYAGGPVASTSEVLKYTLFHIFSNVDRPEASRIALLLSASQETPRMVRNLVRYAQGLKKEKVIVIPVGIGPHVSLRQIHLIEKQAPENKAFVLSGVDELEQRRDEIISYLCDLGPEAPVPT
T1 sequence (P04275 with tags, fused parts or gaps T1381A): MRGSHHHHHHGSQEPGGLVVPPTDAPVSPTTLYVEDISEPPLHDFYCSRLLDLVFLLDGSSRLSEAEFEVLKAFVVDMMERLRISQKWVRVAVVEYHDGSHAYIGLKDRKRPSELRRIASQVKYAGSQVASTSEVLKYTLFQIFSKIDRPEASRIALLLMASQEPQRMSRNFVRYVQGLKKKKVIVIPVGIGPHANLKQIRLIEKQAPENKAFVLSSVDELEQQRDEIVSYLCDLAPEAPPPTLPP

Row | Molecule | Screen- Rabbit/No Protein ([2]; rRfY aptamers) | Kd [1, 5] | Screen- Human/No Protein [3, 6] | Screen- Rabbit/No Protein ([2]; DNA SELEX 1 aptamers) | Kd [1, 7] | Screen- Human/No Protein [3, 8] | also measured
1 | CGATCTGACTAGCGGAATGAGAATGCTGGTGGATCG (DNA, backbone not given here) [SEQ ID NO 206] |  |  |  |  |  |  | Human vWF A1 domain KD ([1]; competition dot blot): No binding
2 | GATCTGACTAGCGCAATGAGGATGCdTGATGGATTGCTCAGGTC (GATCTGACTAGCGCAATGAGGATGCDTGATGGATTGCTCAGGTC; DNA, backbone and the base at N not given here) [SEQ ID NO 207] |  |  |  |  |  |  | Human vWF A1 domain KD ([1]; competition dot blot): No binding
3 | AMX201.H1: rRfY aptamer clone (nucleic acid) rGrGrArGfCrGfCrAfCfUfCrArGfCfCrAfCfUfUfUrAfCrGrGfUrGrArArArGfUfCfUfCfUfCrGrGrGrGfUfUfCfCrGrArGfUfUrAfCrGrGfUrGfCrGfUfUfUfCrGrAfCfCfUfCfUfCfUrGfCfUrArGfC | 2.46 | 189 nM | 2.61 |  |  |  | 
4 | AMX201.G9: rRfY aptamer clone (nucleic acid) rGrGrArGfCrGfCrAfCfUfCrArGfCfCrAfCfUrArAfCrGrGfCfUrGrAfUfCfUfCrArGrGrAfCfUrArArAfUrArGfUfCrArAfCrArArGrGrAfUrGfCrGfUfUfUfCrGrAfCfCfUfCfUfCfUrGfCfUrArGfC | 2.11 | 182 nM | 2.06 |  |  |  | 
5 | AMX198.C6: rRfY aptamer clone (nucleic acid) rGrGrArGfCrGfCrAfCfUfCrArGfCfCrAfCrGrGfUrGrGfUfCrArGfUfCrArGfUrGrAfUrAfUrGrAfUfUrArArGfUfUfCrArGfCfUrGfUrGrGfCfUrGfUfUfUfCrGrAfCfCfUfCfUfCfUrGfCfUrArGfC | 4.62 | 249 nM | 3.03 |  |  |  | 
6 | AMX198.E5: rRfY aptamer clone (nucleic acid) rGrGrArGfCrGfCrAfCfUfCrArGfCfCrAfCfUfUfCrGrAfCfUfUfUfCrAfUrGfUfCfUrGrArArGfUfCfCfCfUrGfCrArGfUrGfCrGrArGrArGrAfCrGfUfUfUfCrGrAfCfCfUfCfUfCfUrGfCfUrArGfC | 1.56 | 172 nM | 1.60 |  |  |  | 
7 | AMX198.A10: rRfY aptamer clone (nucleic acid) rGrGrArGfCrGfCrAfCfUfCrArGfCfCrAfCfCrArGfUfUrAfUrGfCfUrGrGfCfUfUfUrGrGfUfCfUfUfUrGrAfCfUrGfUfCfUrGrArGfUrGfUfUfCrGfUfUfUfCrGrAfCfCfUfCfUfCfUrGfCfUrArGfC | 5.74 | 1860 nM | 1.26 |  |  |  | 
8 | AMX198.E11: rRfY aptamer clone (nucleic acid) rGrGrArGfCrGfCrAfCfUfCrArGfCfCrAfCrGrGfUrArAfCrAfUfUrGfUfUfUfCfCrGrGfCrGrAfUfUfCfUfUfUrGrArAfCrGfCfCrGfUfCrGfUrGrGfUfUfUfCrGrAfCfCfUfCfUfCfUrGfCfUrArGfC | 2.37 | 1060 nM | 1.03 |  |  |  | 
9 | AMX198.C10: rRfY aptamer clone (nucleic acid) rGrGrArGfCrGfCrAfCfUfCrArGfCfCrAfCfUrGrGfUfCfCfUfUrArGfCfUrArGfUfUrGfUrAfCfUrArGfCrGrAfCrGfCrGfUfUfCrArGrGfUrGrGfUfUfUfCrGrAfCfCfUfCfUfCfUrGfCfUrArGfC | 3.39 | 555 nM | 1.40 |  |  |  | 
10 | AMX200.C11: DNA SELEX 1 aptamer clone (nucleic acid, DNA, backbone not given here, DNA SELEX 1 aptamer clone) DNA: CTACCTACGATCTGACTAGCGGAATGAGAGTGCTGATGGATTGCTCAGGTCTGCTGGCTGCTTACTCTCATGTAGTTCC |  |  |  | 3.64 | 26 nM | 6.00 | 
11 | AMX199.F7: DNA SELEX 1 aptamer clone (nucleic acid, DNA, backbone not given here, DNA SELEX 1 aptamer clone) DNA: CTACCTACGATCTGACTAGCGGAATGAGAGTGCTGGTGGATTGCTCAGGTCTGCTGGCTGCTTACTCTCATGTAGTTCC |  |  |  | 5.00 | 22 nM | 5.47 | 
12 | AMX199.G10: DNA SELEX 1 aptamer clone (nucleic acid, DNA, backbone not given here, DNA SELEX 1 aptamer clone) DNA: CTACCTACGATCTGACTAGCGGAATGAGAATGTTGGTGGATTGCTCAGGTCTGCTGGCTGCTTACTCTCATGTAGTTCC |  |  |  | 2.66 | 22 nM | 4.97 | 
13 | AMX237.E10: DNA SELEX 2 aptamer clone (nucleic acid, DNA, backbone and methylation of C not given here, DNA SELEX 2 aptamer clone) DNA: CTACCTACGATCTGACTAGCGGAATGAGAATGCTGGTGGATTGCTCAGGTCTGCTGGCTGCTTACTCTCATGTAGTTCC |  |  |  |  |  |  | Screen Rabbit/No Protein [2]: 6.04; Inhibition of full length hVWF binding in FACS assay, IC50 range [4]: no activity; Screen- Human/No Protein (full length human vWF): 1.12
14 | AMX199.C2: DNA SELEX 1 aptamer clone (nucleic acid, DNA, backbone not given here, DNA SELEX 1 aptamer clone) DNA: CTACCTACGATCTGACTAGCGGAATGAGAATGCTGGTGGATTGCCCAGGTCTGCTGGCTGCTTACTCTCATGTAGTTCC |  |  |  | 4.61 | 17 nM | 5.09 | 
15 | AMX200.D3: DNA SELEX 1 aptamer clone (nucleic acid, DNA, backbone not given here, DNA SELEX 1 aptamer clone) DNA: CTACCTACGATCTGACTAGCGCAATGAGGATGCTGATGGATTGCTCAGGTCTGCTGGCTGCTTACTCTCATGTAGTTCC |  |  |  | 2.41 | 36 nM | 2.68 | 
16 | AMX200.F11: DNA SELEX 1 aptamer clone (nucleic acid, DNA, backbone not given here, DNA SELEX 1 aptamer clone) DNA: CTACCTACGATCTGACTAGCGGAATGAGGATGCTGGTGGATTGCTCAGGTCTGCTGGCTGCTTACTCTCATGTAGTTCC |  |  |  | 3.25 | 34 nM | 3.83 | 
17 | AMX199.B7: DNA SELEX 1 aptamer clone (nucleic acid, DNA, backbone not given here, DNA SELEX 1 aptamer clone) DNA: CTACCTACGATCTGACTAGCGGGATGAGAGTGCTGGTGGATTGCTCAGGTCTGCTGGCTGCTTACTCTCATGTAGTTCC |  |  |  | 3.65 | 29 nM | 4.08 | 
18 | AMX236.B8: DNA SELEX 2 aptamer clone (nucleic acid, DNA, backbone not given here, DNA SELEX 2 aptamer clone) CTACCTACGATCTGACTAGCTTGGTAGCGACTCTGTGGAGCTGCGGTCTGGTCGACGTCAGCTTACTCTCATGTAGTTCC |  |  |  |  |  |  | Screen Rabbit/No Protein [2]: 1.88; Screen- Human/No Protein (full length human vWF): 1.66
